{"source": "patent US20190049430", "proteins": {"B1": {"name": "Metalloendopeptidase OMA1 (OMA1), endogenous enzyme in normal rat kidney (NRK-52E) cell lysate (protein)", "chain": "AAPVPLLMLILKPVQKLLAIIVGRGIRKWWQALPPDKKALFKDSVKRNKWRLLLGLSAFGLLFVVFYFTHLEVSPVTGRSKLLLVGKEHFRLLSDLEYEVWMEEFKNDLLPEEDPRYLTVKKVVYHLTQCNQDVPGVSEINWVVHVVHSPKVNAFVLPNGQVFVFTGLLNSVTDMHQLSFLLGHEIAHAVLGHAAEKASLVHLLDFLGMIFLTMIWAICPRDSLAVLGQWIQSKLQEYMFDRPYSRTLEAEADKIGLQLAAKACVDVRASSVFWQQMEFSESLHGYPKLPEWLSTHPSHGNRAEYLDRLIPQALKLREVCNCPPLSGPDPRLLFRLTVKHLLEDSEKEDLNITVKKQKPDALPIQKQEQIPLTYALGKRTAG"}}, "key": {"[1]": {"target": "T1, FRET peptide MCA-ATDHGSES-Lys DNP (no RA motif)", "T1 chain": "ATDHGSES"}, "[2]": {"target": "T2, OPA1 FRET substrate MCA-AFRATDHG-DNP", "T2 chain": "AFRATDHG"}}}
{"protein": "B1", "values": [{"measurement": "OMA1 Activity (average slope over 30 min compared to AFRATDHG substrate)", "setting": "[1]", "value": 2.71, "unit": "%"}, {"measurement": "OMA1 Activity (average slope over 30 min compared to AFRATDHG substrate)", "setting": "[2]", "value": 100, "unit": "%"}]}
